Measurements: patent US20230374149A1 (SHANGHAI HANSOH BIOMEDICAL, published 2023)

Biological target: T1, His-tagged human TROP-2 (TROP-2-His), SinoBiologics 10428-H08H (human, UniProt P09758 27-274)
T1 construct: Bought protein; also called TROP-2 His protein; human TROP-2 His antigen; not shown: His tag
T1 sequence: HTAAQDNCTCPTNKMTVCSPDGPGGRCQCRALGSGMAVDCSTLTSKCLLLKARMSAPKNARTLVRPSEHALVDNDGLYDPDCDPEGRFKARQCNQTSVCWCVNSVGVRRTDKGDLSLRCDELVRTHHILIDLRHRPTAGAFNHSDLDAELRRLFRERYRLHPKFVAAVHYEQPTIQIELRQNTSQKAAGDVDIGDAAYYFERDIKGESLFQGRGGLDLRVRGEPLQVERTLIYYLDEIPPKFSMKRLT
Experiment: indirect ELISA, coated TROP-2 His

B1: murine monoclonal antibody M1 (antibody, V domains shown)
VH: QVQLQQPGAELVRPGASVKLSCRASGYTFTNYWMNWVKQRPEQGLEWIGRIDPNDSETHYNQKFKDRAILTVDKASNTAYMQLSGLTSEDSAVHYCARSGFGSTYWFFDVWGAGTTVTVSS
VL: DIVMTQSHKFMSTSVGDRVSITCKASQDVSTAVAWYQQKPGQSPKLLIYSASYRYTGVPDRFAGSGYGTDFTFTISSVQTEDLTVYHCQQHYSTPLTFGPGTRLELK
notes: It is called a murine antibody, but the ELISA used a goat-anti-human secondary antibody
EC50: 0.56 nM
